This passage reports Kd results from US20030068675, “Position dependent recognition of GNN nucleotide triplets by zinc fingers” (published 2003).

Usually Kd stands for a measure of binding affinity in units of concentration.

Common to all, as to experiment: EMSA
Common to all, as to details: tags: MBP fusion

The target of one data set is T1, ZFP SBS#1436 (synthetic, UniProt P08047).
T1 chain: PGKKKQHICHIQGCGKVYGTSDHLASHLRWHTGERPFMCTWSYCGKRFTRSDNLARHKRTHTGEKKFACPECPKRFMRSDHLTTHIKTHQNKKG
In a few lines: (§1)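 Purified ZFP was titrated against labeled double-stranded target (1 nM or lower, at least 10-fold below expected Kd) carrying the natural binding site with flanks. Binding buffer was 10 mM Tris pH 7.5, 100 mM KCl, 1 mM MgCl2, 0.1 mM ZnCl2, 5 mM DTT, 10% glycerol, 0.02% BSA, with equilibration for at least 45 min. Bound and free target were separated on a 10% polyacrylamide gel.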

For a further data set, the target named is T2, ZFP SBS#1399 (synthetic, UniProt P08047).
T2 chain: T1 chain with S21K, D22Q, A25K, S26T
In a few lines: as §1

The target of another data set is T3, ZFP SBS#1422 (synthetic).
T3 chain: T1 chain with T20R, H23E, A25T, S26R, N53D, A55T, R56T, T83S, T84R
In a few lines: as §1

A further data set has as its target T4, ZFP SBS#1423 (synthetic).
T4 chain: T1 chain with T20R, H23E, A25T, S26R, N53D, A55T, R56K, T83S, T84R
The method in brief: as §1

The target in another data set is T5, ZFP SBS#1410 (synthetic, UniProt P08047).
T5 chain: T1 chain with T20R, H23E, A25T, S26R, N53E, A55Q, H81E, T83R, T84E
In a few lines:
as §1

A further data set addresses ZFP SBS#1439 (synthetic). The method in brief: as §1
A further data set addresses ZFP SBS#1440 (synthetic). In a few lines: as §1
The next data set has as its target ZFP SBS#1444 (synthetic). In a few lines: as §1
A further data set concerns the target ZFP SBS#1443 (synthetic). The method in brief: as §1
Another data set has as its target T6, ZFP SBS#1445 (synthetic).
T6 chain: T1 chain with T20Q, D22G, H23N, S26R, S51L, A55T, R56A, D80H
In a few lines:
as §1

A further data set concerns the target ZFP SBS#1446 (synthetic). In a few lines:
as §1

The target of another data set is T7, ZFP SBS#1415 (synthetic).
T7 chain: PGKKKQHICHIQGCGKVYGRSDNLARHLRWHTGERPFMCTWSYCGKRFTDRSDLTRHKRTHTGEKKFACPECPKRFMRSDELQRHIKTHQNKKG
The method in brief:
as §1

The next data set concerns the target T8, ZFP SBS#1416 (synthetic).
T8 chain: T7 chain with D50E, S52G, D53T, T55A
The method in brief: as §1

The target of another data set is T9, ZFP SBS#1418 (synthetic).
T9 chain: T1 chain with T20R, S21A, H23A, A25M, S26V, H81A, T83R, T84E
The method in brief:
as §1

The target of the next data set is T10, ZFP SBS#1402 (synthetic).
T10 chain: T1 chain with T20R, S21G, H23A, A25T, H81A, T83R, T84E
In a few lines: as §1

The target in a further data set is T11, ZFP SBS#1432 (synthetic).
T11 chain: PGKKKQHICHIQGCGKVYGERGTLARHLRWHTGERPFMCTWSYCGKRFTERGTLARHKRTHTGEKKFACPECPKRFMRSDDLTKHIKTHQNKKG
The method in brief: as §1

In a further data set the target is T12, ZFP SBS#1430 (synthetic).
T12 chain: T11 chain with E50D, G52S, T53D, A55T
The method in brief: as §1

The next data set addresses T13, ZFP SBS#1431 (synthetic).
T13 chain: T11 chain with E50D, G52S, T53D, A55T, T83A, K84S
The method in brief: as §1

The target in a further data set is T14, ZFP SBS#1442 (synthetic).
T14 chain: T11 chain with E50R, R51S, G52D, T53H, A55T, R56T, R78D, S79R, D80S, D81H
In a few lines:
as §1

For the next data set, the target named is T15, ZFP SBS#1401 (synthetic).
T15 chain: T11 chain with E50R, R51A, G52D, T53A, A55M, R56V, D81N, T83A, K84R
The method in brief: as §1

The next data set concerns the target T16, ZFP SBS#1417 (synthetic).
T16 chain: T11 chain with E50R, R51G, G52D, T53A, A55T, R56S, D81N, T83A, K84R
The method in brief: as §1

A further data set deals with ZFP SBS#1428 (synthetic). The method in brief:
as §1

A further data set deals with ZFP SBS#1429 (synthetic). In a few lines: as §1
The next data set concerns the target ZFP SBS#1411 (synthetic). The method in brief: as §1
Another data set deals with T17, ZFP SBS#1424 (synthetic).
T17 chain: T7 chain with N23E, A25R, R26E, D53H, T55A, E81N, Q83R, R84E
The method in brief: as §1

In the next data set the target is T18, ZFP SBS#1427 (synthetic).
T18 chain: T7 chain with N23D, A25R, R26E, D53H, T55A, E81N, Q83T, R84E
In a few lines:
as §1

The target of a further data set is T19, ZFP SBS#1414 (synthetic).
T19 chain: T11 chain with E20R, R21S, G22D, T23E, A25T, D81A, T83R, K84E
The method in brief: as §1

The next data set concerns the target T20, ZFP SBS#1413 (synthetic).
T20 chain: T7 chain with N23E, A25T, E81A, Q83R, R84E
The method in brief: as §1

The target of a further data set is T21, ZFP SBS#1412 (synthetic).
T21 chain: T11 chain with E20R, R21S, G22D, T23S, A25L, D81A, T83R, K84E
The method in brief: as §1

The target of another data set is T22, ZFP SBS#1434 (synthetic).
T22 chain: T7 chain with N23S, A25L, E81A, Q83R, R84E
The method in brief: as §1

In the next data set the target is ZFP SBS#1441 (synthetic). The method in brief:
as §1

In a further data set the target is T23, ZFP SBS#1398 (synthetic).
T23 chain: T1 chain with T20R, A25S, S26R, N53H, A55T, R56T, R78Q, D80G, H81N, T83R
In a few lines: as §1

For another data set, the target named is T24, ZFP SBS#1435 (synthetic).
T24 chain: T1 chain with T20R, A25S, S26R, N53H, A55T, R56T, R78Q, D80G, H81N, T84K
In a few lines:
as §1

Positions count from the first letter of the chain named.

ZFP SBS#1446 (synthetic), sequence (chain, as listed by the source): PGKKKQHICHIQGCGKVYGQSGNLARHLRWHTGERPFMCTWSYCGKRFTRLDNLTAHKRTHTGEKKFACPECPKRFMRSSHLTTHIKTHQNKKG
ZFP SBS#1441 (synthetic), sequence (chain, as listed by the source): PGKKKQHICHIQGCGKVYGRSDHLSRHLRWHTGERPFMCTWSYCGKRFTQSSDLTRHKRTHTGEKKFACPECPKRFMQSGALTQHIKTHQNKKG
ZFP SBS#1440 (synthetic), sequence (chain, as listed by the source): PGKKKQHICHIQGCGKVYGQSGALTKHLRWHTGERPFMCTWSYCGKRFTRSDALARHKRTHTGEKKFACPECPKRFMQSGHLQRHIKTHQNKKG
ZFP SBS#1444 (synthetic), sequence (chain, as listed by the source): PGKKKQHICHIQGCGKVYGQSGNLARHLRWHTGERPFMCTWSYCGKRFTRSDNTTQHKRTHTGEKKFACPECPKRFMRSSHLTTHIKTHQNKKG
ZFP SBS#1439 (synthetic), sequence (chain, as listed by the source): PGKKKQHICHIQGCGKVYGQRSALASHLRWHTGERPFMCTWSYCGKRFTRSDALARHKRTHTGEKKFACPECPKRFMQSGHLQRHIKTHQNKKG

B1: TGGGAGTGT (dsDNA)
DNA 1: TGGGAGTGT
DNA 2: ACACTCCCA
Take B1: the Kd with ZFP SBS#1436 is 0.026 nM; with ZFP SBS#1399, 0.1 nM.

B2: GGGTCGGCG (dsDNA)
DNA 1: GGGTCGGCG
DNA 2: CGCCGACCC
Take B2: the Kd with ZFP SBS#1422 was found to be 0.064 nM; with ZFP SBS#1423, 0.034 nM.

B3: CCGGCGGCG (dsDNA)
DNA 1: CCGGCGGCG
DNA 2: CGCCGCCGG
In the data set with ZFP SBS#1410, B3 gave a dissociation constant (Kd) of 0.814 nM. This counts as sub-nanomolar.

B4: GGAGTGTTA (dsDNA)
DNA 1: GGAGTGTTA
DNA 2: TAACACTCC
As to B4, the Kd worked out at 0.075 nM with ZFP SBS#1439 and 0.035 nM with ZFP SBS#1440.

B5: TGGAAGGAA (dsDNA)
DNA 1: TGGAAGGAA
DNA 2: TTCCTTCCA
In the case of B5, the Kd stood at 0.09 nM with ZFP SBS#1444, 0.22 nM with ZFP SBS#1443, 0.182 nM with ZFP SBS#1445 and 0.42 nM with ZFP SBS#1446.

B6: GCGGCCGAG (dsDNA)
DNA 1: GCGGCCGAG
DNA 2: CTCGGCCGC
On to B6, for which the Kd was 0.102 nM with ZFP SBS#1415 and 0.153 nM in the data set with ZFP SBS#1416.

B7: CTGGAGTTG (dsDNA)
DNA 1: CTGGAGTTG
DNA 2: CAACTCCAG
As to B7, the results for the dissociation constant (Kd) in the data set with ZFP SBS#1418 and with ZFP SBS#1402 were 0.241 nM and 0.15 nM, respectively.

B8: TCGGCCGCC (dsDNA)
DNA 1: TCGGCCGCC
DNA 2: GGCGGCCGA
Consider B8, for which the Kd came out at 1.78 nM with ZFP SBS#1432, 0.352 nM with ZFP SBS#1430 and 6.17 nM in the data set with ZFP SBS#1431.

B9: TGCTGGGCC (dsDNA)
DNA 1: TGCTGGGCC
DNA 2: GGCCCAGCA
On to B9, for which the equilibrium dissociation constant (Kd) with ZFP SBS#1442 stood at 0.36 nM.

B10: GAGTTGGCC (dsDNA)
DNA 1: GAGTTGGCC
DNA 2: GGCCAACTC
B10: the dissociation constant Kd was 0.167 nM in the data set with ZFP SBS#1401 and 1.4 nM with ZFP SBS#1417.

B11: TGAGGCGAG (dsDNA)
DNA 1: TGAGGCGAG
DNA 2: CTCGCCTCA
Turning to B11, the equilibrium dissociation constant (Kd) in the data set with ZFP SBS#1428 came out at 0.102 nM; in the data set with ZFP SBS#1429 it was 0.074 nM; with ZFP SBS#1411 it was 0.282 nM.

B12: CAGGGCCCG (dsDNA)
DNA 1: CAGGGCCCG
DNA 2: CGGGCCCTG
On to B12, for which the Kd is 1.37 nM in the data set with ZFP SBS#1424 and 0.271 nM in the data set with ZFP SBS#1427.

B13: CTGGCCGCG (dsDNA)
DNA 1: CTGGCCGCG
DNA 2: CGCGGCCAG
In the case of B13, the dissociation constant Kd was 0.914 nM with ZFP SBS#1414 and 0.152 nM with ZFP SBS#1413.

B14: CTGGCCGTG (dsDNA)
DNA 1: CTGGCCGTG
DNA 2: CACGGCCAG
Turning to B14, the equilibrium dissociation constant (Kd) in the data set with ZFP SBS#1412 was determined as 0.172 nM; with ZFP SBS#1434, 0.051 nM.

B15: ATAGCTGGG (dsDNA)
DNA 1: ATAGCTGGG
DNA 2: CCCAGCTAT
In the data set with ZFP SBS#1441, B15 displayed a Kd of 0.262 nM.

B16: TAATGGGGG (dsDNA)
DNA 1: TAATGGGGG
DNA 2: CCCCCATTA
For the molecule B16, the dissociation constant Kd amounted to 0.065 nM with ZFP SBS#1398 and 0.057 nM in the data set with ZFP SBS#1435.
